From article doi:10.1101/2021.05.25.445566 (bioRxiv, 2021)

T1: MlaF K47A (Walker A variant) (UniProt P63386 1-269, K47A)
T1 sequence: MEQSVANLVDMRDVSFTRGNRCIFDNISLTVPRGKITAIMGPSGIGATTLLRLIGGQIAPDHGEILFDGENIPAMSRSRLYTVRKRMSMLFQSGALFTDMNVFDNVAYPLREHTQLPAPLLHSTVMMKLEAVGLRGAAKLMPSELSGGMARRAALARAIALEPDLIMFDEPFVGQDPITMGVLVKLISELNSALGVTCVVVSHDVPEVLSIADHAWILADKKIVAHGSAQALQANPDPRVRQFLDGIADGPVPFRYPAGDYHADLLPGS

T2: MlaF, nucleotide binding domain of the MlaFEDB ABC transporter (UniProt P63386 1-269)
T2 sequence: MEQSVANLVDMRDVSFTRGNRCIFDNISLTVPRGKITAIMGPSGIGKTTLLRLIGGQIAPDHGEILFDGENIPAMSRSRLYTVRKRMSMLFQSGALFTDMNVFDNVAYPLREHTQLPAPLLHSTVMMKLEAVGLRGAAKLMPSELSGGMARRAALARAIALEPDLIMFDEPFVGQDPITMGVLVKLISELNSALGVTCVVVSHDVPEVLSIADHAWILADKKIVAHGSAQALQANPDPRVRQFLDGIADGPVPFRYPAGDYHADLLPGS

B1: MlaE, His-tagged (His-E), permease of the MlaFEDB ABC transporter (natural protein)
chain: MLLNALASLGHKGIKTLRTFGRAGLMLFNALVGKPEFRKHAPLLVRQLYNVGVLSMLIIVVSGVFIGMVLGLQGYLVLTTYSAETSLGMLVALSLLRELGPVVAALLFAGRAGSALTAEIGLMRATEQLSSMEMMAVDPLRRVISPRFWAGVISLPLLTVIFVAVGIWGGSLVGVSWKGIDSGFFWSAMQNAVDWRMDLVNCLIKSVVFAITVTWISLFNGYDAIPTSAGISRATTRTVVHSSLAVLGLDFVLTALMFGN

Key:
[1] = molecular target: B1; assay: SEC
[2] = molecular target: the molecule itself; assay: SDS-PAGE of SDS-resistant oligomers
[3] = molecular target: T1, MlaF K47A (Walker A variant); assay: SEC
[4] = molecular target: T2, MlaF, nucleotide binding domain of the …; assay: SEC

| binding result [1] | binding result [3] | binding result [4] | Binder | stoichiometry N [2] |
| --- | --- | --- | --- | --- |
| binds | – | – | MlaD, substrate-binding MCE-domain protein of the MlaFEDB complex (natural protein) MQTKKNEIWVGIFLLAALLAALFVCLKAANVTSIRTEPTYTLYATFDNIGGLKARSPVSIGGVVVGRVADITLDPKTYLPRVTLEIEQRYNHIPDTSSLSIRTSGLLGEQYLALNVGFEDPELGTAILKDGDTIQDTKSAMVLEDLIGQFLYGSKGDDNKNSGDAPAAAPGNNETTEPVGTTK | – |
| binds | – | – | MlaD L106N/L107N (natural protein) MQTKKNEIWVGIFLLAALLAALFVCLKAANVTSIRTEPTYTLYATFDNIGGLKARSPVSIGGVVVGRVADITLDPKTYLPRVTLEIEQRYNHIPDTSSLSIRTSGNNGEQYLALNVGFEDPELGTAILKDGDTIQDTKSAMVLEDLIGQFLYGSKGDDNKNSGDAPAAAPGNNETTEPVGTTK | 6 |
| binds | – | – | MlaD Δ141-183 (natural protein) MQTKKNEIWVGIFLLAALLAALFVCLKAANVTSIRTEPTYTLYATFDNIGGLKARSPVSIGGVVVGRVADITLDPKTYLPRVTLEIEQRYNHIPDTSSLSIRTSGLLGEQYLALNVGFEDPELGTAILKDGDTIQDTKSA | 6 |
| – | binds | binds | B1 | – |
| binds | – | – | MlaB, cytoplasmic STAS-domain protein of the MlaFEDB complex (natural protein) MSESLSWMQTGDTLALSGELDQDVLLPLWEMREEAVKGITCIDLSRVSRVDTGGLALLLHLIDLAKKQGNNVTLQGVNDKVYTLAKLYNLPADVLPR | – |
| binds | – | – | MlaB T52A (natural protein) MSESLSWMQTGDTLALSGELDQDVLLPLWEMREEAVKGITCIDLSRVSRVDAGGLALLLHLIDLAKKQGNNVTLQGVNDKVYTLAKLYNLPADVLPR | – |
